Measurements from the Immune Epitope Database (IEDB).

Columns and labels:
[1] = target: HLA-B*15:01; experiment: IEDB peptide-MHC binding, purified MHC/competitive/fluorescence; ≥ and ≤ were set here for values at or beyond the usual limits of such assays; conditions: source organism: Zaire ebolavirus
[2] = target: HLA-A*24:02; experiment: as above; conditions: source organism: Zaire ebolavirus
[3] = target: HLA-A*02:01; experiment: as above
[4] = target: HLA-B*07:02; experiment: as above; conditions: source organism: Zaire ebolavirus
[5] = target: HLA-A*29:02; experiment: IEDB peptide-MHC binding, purified MHC/competitive/fluorescence; filed as Kd, often an IC50 or EC50 that approximates it; ≥ and ≤ were set here for values at or beyond the usual limits of such assays; conditions: source organism: Coxiella burnetii 'MSU Goat Q177'
[6] = target: HLA-A*02:16; experiment: as above
[7] = target: HLA-B*15:01; experiment: as above
[8] = target: HLA-A*03:01; experiment: as above
[9] = target: HLA-A*24:03; experiment: as above
[10] = target: HLA-B*39:01; experiment: as above
[11] = target: HLA-A*23:01; experiment: as above
[12] = target: HLA-A*02:19; experiment: as above
[13] = target: HLA-A*02:01; experiment: as above
[14] = target: HLA-A*69:01; experiment: as above
[15] = target: HLA-A*02:11; experiment: as above
[16] = target: HLA-A*02:12; experiment: as above
[17] = target: HLA-B*51:01; experiment: as above
[18] = target: HLA-B*57:01; experiment: as above
[19] = target: HLA-B*15:17; experiment: as above
[20] = target: HLA-A*02:03; experiment: as above
[21] = target: HLA-A*26:01; experiment: as above
[22] = target: HLA-B*27:03; experiment: as above
[23] = target: HLA-B*46:01; experiment: as above
[24] = target: HLA-A*68:02; experiment: as above
[25] = target: HLA-B*18:01; experiment: as above
[26] = target: HLA-A*29:02; experiment: IEDB peptide-MHC binding, purified MHC/direct/fluorescence; filed as Kd, often an IC50 or EC50 that approximates it; ≥ and ≤ were set here for values at or beyond the usual limits of such assays; conditions: source organism: Zaire ebolavirus
[27] = target: HLA-A*02:16; experiment: as above; conditions: source organism: Zaire ebolavirus
[28] = target: HLA-A*03:01; experiment: as above; conditions: source organism: Zaire ebolavirus
[29] = target: HLA-A*24:03; experiment: as above; conditions: source organism: Zaire ebolavirus
[30] = target: HLA-A*23:01; experiment: as above; conditions: source organism: Zaire ebolavirus
[31] = target: HLA-A*02:19; experiment: as above; conditions: source organism: Zaire ebolavirus
[32] = target: HLA-A*02:11; experiment: as above; conditions: source organism: Zaire ebolavirus
[33] = target: HLA-A*02:12; experiment: as above; conditions: source organism: Zaire ebolavirus
[34] = target: HLA-A*02:03; experiment: as above; conditions: source organism: Zaire ebolavirus
[35] = target: HLA-A*26:01; experiment: as above; conditions: source organism: Zaire ebolavirus
[36] = target: HLA-A*68:02; experiment: as above; conditions: source organism: Zaire ebolavirus
[37] = target: HLA-A*01:01; experiment: IEDB peptide-MHC binding, purified MHC/competitive/fluorescence; ≥ and ≤ were set here for values at or beyond the usual limits of such assays; conditions: source organism: Zaire ebolavirus
[38] = target: HLA-B*08:01; experiment: as above; conditions: source organism: Vaccinia virus WR
[39] = source organism: Zaire ebolavirus
[40] = source organism: Coxiella burnetii 'MSU Goat Q177'
[41] = source organism: Vibrio parahaemolyticus RIMD 2210633

How did the IC50 [1] turn out when AQPKCNPNL was run?
Its IC50 is ≥ 93.5 µM.

What about the IC50 [2] of the same sequence?
The IC50 was 12.1 µM.

And the IC50 [3, 39]?
Its IC50 is 47.6 µM.

What about the IC50 [4] of the same sequence?
The IC50 was ≥ 121 µM.

Which Kd [5] does the source give for AVDWYQQRI here?
Its Kd is ≥ 20 µM.

And the Kd [6, 40]?
Its Kd is 0.36 µM.

What about the Kd [7, 40] of the same sequence?
The Kd was ≥ 20 µM.

What about the Kd [8, 40] of the same sequence?
The Kd was ≥ 20 µM.

What about the Kd [9, 40] of the same sequence?
The Kd was ≥ 20 µM.

What about the Kd [10, 40] of the same sequence?
Its Kd is ≥ 20 µM.

And the Kd [11, 40]?
Its Kd is ≥ 20 µM.

And the Kd [12, 40]?
The Kd was ≥ 20 µM.

What about the Kd [13, 40] of the same sequence?
The Kd was ≥ 20 µM.

And the Kd [14, 40]?
Its Kd is ≥ 20 µM.

And the Kd [15, 40]?
The Kd was ≥ 20 µM.

And the Kd [16, 40]?
The Kd was ≥ 20 µM.

What about the Kd [17, 40] of the same sequence?
The Kd was ≥ 20 µM.

And the Kd [18, 40]?
The Kd was ≥ 20 µM.

What about the Kd [19, 40] of the same sequence?
The Kd was ≥ 20 µM.

What about the Kd [20, 40] of the same sequence?
The Kd was ≥ 20 µM.

And the Kd [21, 40]?
Its Kd is ≥ 20 µM.

What about the Kd [22, 40] of the same sequence?
Its Kd is ≥ 20 µM.

What about the Kd [23, 40] of the same sequence?
Its Kd is ≥ 20 µM.

And the Kd [24, 40]?
The Kd was ≥ 20 µM.

And the Kd [25, 40]?
The Kd was ≥ 20 µM.

How did the Kd [7, 39] turn out when EAEKQLQQY was run?
The Kd was ≥ 20 µM.

And the Kd [10, 39]?
The Kd was ≥ 20 µM.

And the Kd [13, 39]?
Its Kd is ≥ 20 µM.

What about the Kd [14, 39] of the same sequence?
The Kd was ≥ 20 µM.

And the Kd [17, 39]?
The Kd was ≥ 20 µM.

And the Kd [18, 39]?
The Kd was ≥ 20 µM.

And the Kd [19, 39]?
Its Kd is ≥ 20 µM.

What about the Kd [22, 39] of the same sequence?
Its Kd is ≥ 20 µM.

And the Kd [23, 39]?
The Kd was ≥ 20 µM.

And the Kd [25, 39]?
The Kd was ≥ 20 µM.

And the Kd [26]?
Its Kd is ≥ 20 µM.

What about the Kd [27] of the same sequence?
Its Kd is ≥ 20 µM.

And the Kd [28]?
Its Kd is ≥ 20 µM.

What about the Kd [29] of the same sequence?
The Kd was ≥ 20 µM.

And the Kd [30]?
The Kd was ≥ 20 µM.

And the Kd [31]?
The Kd was ≥ 20 µM.

And the Kd [32]?
Its Kd is ≥ 20 µM.

And the Kd [33]?
The Kd was ≥ 20 µM.

What about the Kd [34] of the same sequence?
The Kd was ≥ 20 µM.

What about the Kd [35] of the same sequence?
The Kd was 2.24 µM.

And the Kd [36]?
The Kd was ≥ 20 µM.

What about the IC50 [37] of the same sequence?
The IC50 was 18.1 µM.

What does the source list for FGLYKSINV?
IC50 [38]: 37 µM; IC50 ([3]; source organism: Vaccinia virus WR): 0.744 µM

How did the Kd [6, 41] turn out when GTVPTDNPF was run?
The Kd was ≥ 20 µM.

What about the Kd [8, 41] of the same sequence?
Its Kd is ≥ 20 µM.

What about the Kd [9, 41] of the same sequence?
The Kd was ≥ 20 µM.

What about the Kd [10, 41] of the same sequence?
Its Kd is ≥ 20 µM.

What about the Kd [11, 41] of the same sequence?
Its Kd is ≥ 20 µM.

What about the Kd [12, 41] of the same sequence?
The Kd was ≥ 20 µM.

And the Kd [13, 41]?
The Kd was ≥ 20 µM.

And the Kd [14, 41]?
The Kd was ≥ 20 µM.

What about the Kd [15, 41] of the same sequence?
The Kd was ≥ 20 µM.

And the Kd [16, 41]?
The Kd was ≥ 20 µM.

What about the Kd [17, 41] of the same sequence?
The Kd was ≥ 20 µM.

And the Kd [18, 41]?
The Kd was 5.47 µM.

And the Kd [20, 41]?
Its Kd is ≥ 20 µM.

And the Kd [21, 41]?
The Kd was ≥ 20 µM.

And the Kd [22, 41]?
Its Kd is ≥ 20 µM.

What about the Kd [23, 41] of the same sequence?
Its Kd is ≥ 20 µM.

What about the Kd [24, 41] of the same sequence?
The Kd was ≥ 20 µM.

And the Kd [25, 41]?
The Kd was ≥ 20 µM.
